Consider five molecules from patent US20210085784A1 (PROGASTRINE ET CANCERS S R L, published 2021).

B1: mAb13 (antibody, V domains shown)
VH: EVQLVESGGGLVQPGGSLKLSCAASGFIFSSYGMSWVRQSPDRRLELVASINTFGDRTYYPDSVKGRFTISRDNAKNTLYLQMTSLKSEDTAIYYCARGTGTYWGQGTTLTVSS
VL: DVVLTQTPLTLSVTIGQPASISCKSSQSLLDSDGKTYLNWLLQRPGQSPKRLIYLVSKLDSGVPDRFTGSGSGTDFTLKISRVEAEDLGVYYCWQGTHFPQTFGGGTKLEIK
notes: Murine monoclonal antibody from a hybridoma, raised against hPG 55-80; also called 2C6C3C7
B2: mAb4 (antibody, V domains shown)
VH: QVQLQQSGAELMKPGASVKISCKATGYTFSSSWIEWLKQRPGHGLEWIGEFLPGSGSTDYNEKFKGKATFTADTSSDTAYMLLSSLTSEDSAVYYCATDGNYDWFAYWGQGTLVTVSA
VL: DLVMTQTPLSLPVSLGDQASISCRSSQSLVHSSGVTYLHWYLQKPGQSPKLLIYKVSNRFSGVPDRFSGSGSGTDFTLKISRVEAEDLGVYFCSQSTHVPPTFGSGTKLEIK
notes: Murine monoclonal antibody from a hybridoma, raised against hPG 1-14; also called 20D2C3G2
B3: mAb3 (antibody, V domains shown)
VH: EVQLQQSGTVLARPGASVKMSCKASGYIFTSYWVHWVKQRPGQGLEWIGGFYPGNSDSRYNQKFKGKATLTAVTSASTAYMDLSSLTNEDSAVYFCTRRDSPQYWGQGTTLTVSS
VL: DVLMTQTPLSLPVSLGDQASISCRSSQSIVHSNGNTYLEWYLQKPGQSPKLLIYKVSNRFSGVPDRFSGSGSGTDFTLKISRLEAEDLGVYYCFQGSHVPFTFGGGTKLEIK
notes: Murine monoclonal antibody from a hybridoma, raised against hPG 1-14; also called 6B5B11C10
B4: mAb19 (antibody, V domains shown)
VH: DVQLQESGPGLVKPSQSLSLTCTVTGYSITSDYAWNWIRQFPGNKLEWMGYISFSGYTSYNPSLKSRISVTRDTSRNQFFLQLTSVTTEDTATYYCAREVNYGDSYHFDYWGQGTIVTVSS
VL: QLALTQSSSASFSLGASAKLTCTLSSQHRTYTIEWYQQQSLKPPKYVMEVKKDGSHSTGHGIPDRFSGSSSGADRYLSISNIQPEDEAIYICGVGDAIKGQSVFVFGGGTKVTVL
notes: Murine monoclonal antibody from a hybridoma, raised against hPG 1-14; also called 1B3B4F11
B5: mAb16 (antibody, V domains shown)
VH: QVQLQQSGAELVKPGASVKLSCKASGYTFTSYYMYWVKQRPGQGLEWIGEINPSNGGTNFNEKFKSKATLTVDKSSSTAYMQLSSLTSEDSAVYYCTRGGYYPFDYWGQGTTLTVSS
VL: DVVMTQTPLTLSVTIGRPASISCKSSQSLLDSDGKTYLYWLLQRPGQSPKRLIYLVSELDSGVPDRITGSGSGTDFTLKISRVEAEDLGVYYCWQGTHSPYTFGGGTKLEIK
notes: Murine monoclonal antibody from a hybridoma, raised against hPG 1-14; also called 1E9D9B6

In this experiment the target is T1, human progastrin (human, UniProt P01350 22-101).
T1 construct: also called hPG; PG
T1 sequence: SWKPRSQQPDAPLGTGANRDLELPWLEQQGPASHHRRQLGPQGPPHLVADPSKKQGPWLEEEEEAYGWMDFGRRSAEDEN
In words: epitope mapping, method not described.
Regarding B1, the binding result is recorded as “binds”.

Consider B2, for which the binding result was “binds”. Under B3 stands “binds”. With B4 the entry was “binds”; with B5, “binds”.
